Here are results for two substances from publication PMC6876572.

In experiment [1] the target is Cof1-decorated (Cofilin-saturated) actin filament (rabbit | S. cerevisiae) (UniProt P68135). The experiment is described as follows: single-molecule two-colour TIRF imaging; actin filaments (10% Alexa-488, 0.5% biotinylated) anchored along their lengths on streptavidin-coated coverslips, exposed to a mixture of Cy5-Srv2ΔCARP (8.3 or 83 nM hexamers) and 1 µM yeast Cof1 in TIRF buffer (10 mM imidazole pH 7.4, 50 mM KCl, 1 mM MgCl2, 1 mM EGTA, 0.2 mM ATP, 10 mM DTT); dwell and waiting times at the pointed end; kon corrected for unlabeled molecules.

The target is the same in experiment [2].

As a reminder, the koff is the rate constant with which the complex falls apart. In general, kon refers to a measure of how fast the partners come together. Take “Cy5-maleimide-labeled Srv2ΔCARP (S. cerevisiae Srv2/CAP lacking the CARP domain) (from UniProt P17555 1-526) (domain or fragment)”: in experiment [1], the average dwell time at the pointed end came to 2.2 s; the fractional occupancy of filament ends at 8.3 nM (calculated from kon and koff) is 16%; the fractional occupancy of filament ends at 83 nM (calculated from kon and koff) was 66%; the koff worked out at 0.45 s⁻¹. Besides, the on-rate constant (kon) in experiment [1] amounted to 1.1e+07 M⁻¹ s⁻¹.

For the substance “N-Srv2 (N-terminal half of S. cerevisiae Srv2/CAP) (domain or fragment)”, the KM of the rate of pointed-end depolymerization against N-Srv2 concentration at 1 µM Cof1 (mf-TIRF, fit to the Michaelis-Menten equation) in experiment [2] was determined as 0.05 µM.
